Our source for the Kd values is doi:10.1101/2024.06.26.600898 (bioRxiv, 2024).

The target of this experiment is H3(1-282)-strep tag Ⅱ-NGL (monkeypox virus (MPXV)). The experiment can be described thus: BLI; […]; PBS; 100 s association, 120 s dissociation; global fit. Conditions: both partners purified.

B1: AI-Poxblock723-strep tag Ⅱ-His8 (designed binder)
chain: MGLKKLQELKKKANELGKKAKEALDKGDFEKAKEYIKKGAEATKEYGELSGNKAAIEDGEKAEEVAEEIVKIAKEEKAKERSGGGGSGGGGS
notes: source: E. coli BL21(DE3), pET30a, purified (STarm Streptactin), exchanged into PBS
As to B1, the Kd (commonly a measure of binding affinity in units of concentration) came to 9 µM.
